US20020147326A1, “Hexameric fusion proteins and uses therefor” (SmithKline Beecham Corporation, priority 1996, published 2002)

Legend:
[1] = biological target: T1, human CD28 on PCD28.1.s2.1 cells (Homo sapiens, UniProt P10747); assay: Flow cytometry binding to cells expressing cell-surface CD28; type: cell-based; conditions: on ice
T1 construct: expressed in transfected cells; host or cells: PCD28.1.s2.1 (PE30.2 murine T-cell hybridoma transfected with pHbactCd28neo)
Procedure: Non-adherent CD28 expressing cells (PCD28.1.s2.1) were used for this assay format. PCD28.1.S2.1 cells were created by transfection of PE30.2 cells [D. Emilie et al., Eur. J. Immunol., 19:1619-1624 (1989)] with a vector for expression of human CD28 [D. Couez et al., Molecular Immunology, 31:47-57 (1994)]. All incubations were carried out on ice. Unlabelled CD80- and CD86-Igαtp or CD80 and CD86-Ig were incubated with the cells in binding buffer consisting of PBS w/o Ca+2/Mg+2, 0.2% bovine serum albumin and 0.1 % sodium azide. After washing twice in binding buffer, bound fusion proteins were detected with a 1:2000 dilution of a goat anti-human polyclonal antibody labeled with FITC (Flourescein isothiocyanate, Southern Biotech). Following two additional washes in binding buffer, the cells were resuspended in binding buffer and analyzed on a FACSort analyzer (Becton-Dickinson) using a 488 nm laser.

[2] = system: PCD28.1.S2.1 cells (human CD28, lacZ fused to the IL-2 promoter); assay: FDG assay for IL-2 promoter activity (lacZ reporter); type: cell-based, murine; conditions: added directly to PC28.1.s2.1 cells in solution (FIG. 20A)
Procedure: A second assay for agonist activity measured induction of IL-2 promoter activity, rather than production of IL-2 protein. The PCD28.1.S2.1 cells described above also contain lacZ fused to the IL-2 promoter. Thus, the PCD28.1.S2.1 cell line provides a convenient system for measuring IL-2 promoter activity upon CD28-mediated T cell simulation. T cells were activated as described above for the CTLL-2 assay, spun down, resuspended in 50 μl of media+50 μl of PBS, lysed with 10 μl of 20% Triton X-100, and supplemented with 25 μl of 10 mM FDG (Molecular Probes), a fluorogenic substrate for b-galactosidase. Hydrolysis of FDG first yields fluorescein monogalactoside (FMG) and then the highly fluorescent product fluorescein. Cell lysates were incubated with FDG for 60 min., and the levels of fluorescence were measured by Fluoroscan (MTX Lab Systems, Inc).
IL-2 promoter activity and IL-2 levels were measured similarly to that described in parts A and B above, except that proliferation of the reader CTLL-2 cells was measured by ^3H-thymidine incorporation.

CD28-Ig [3] = biological target: T2, CD28-Ig (Homo sapiens, UniProt P10747); assay: ELISA binding of biotinylated fusion proteins to immobilized CD28-Ig; parameters: native leader and extracellular domain peptide of CD28 and CD80 were grafted onto a human IgG1 heavy chain Fc region; human IgG1 Fc (hinge/CH2/CH3); made in house; host or cells: CHO cells; conditions: for binding to immobilized CD28-Ig: biotinylated protein, ELISA
Procedure: For this assay format, the CD80-Igαtp protein was biotinylated for simplicity of assay and for ease of detection since the CD28 protein absorbed to the plate wells was also a human Ig fusion construct. Biotinylation was carried out essentially as described in Avidin-Biotin Chemistry: A handbook, M. D. Savage et al., Pierce Chemical Company (1992). […] All steps of the assay after coating were carried out at room temperature.
The wells of 96 well microtiter plates (Immunlon 4, Dynatech Laboratories) were coated with CD28-Ig (1, 2, or4 μg/ml) in 100 μl/well of 0.1 M sodium bicarbonate, pH 9.4 and incubated overnite @4° C. The wells were washed with PBS (phosphate buffered saline) and blocked with 0.5% gelatin in PBS for 1 hour. Following an additional PBS wash, biotinylated CD80-Igαtp was serially diluted in PBS containing 1 mg/ml BSA, 0.05% Tween directly in the wells in a final volume of 0.1 ml and incubated for 1 hour. The wells were washed with PBS and bound CD80-Igαtp protein was measured by the addition of 0.1 ml of strepavidin-HRP (streptavidin conjugated with horseradish peroxidase (Southern Biotech)) at a 1:2000 dilution for 1 hour, followed by washing and color development with 100 μl ABTS substrate (Kierkegaard and Perry Laboratories Inc., Maryland) and measurement of absorbance at 405 nm. In some cases the color reactions were arrested by addition of 100 μl of 1% SDS prior to measurement of absorbance. In this figure, “CD28-Fc”, “CTLA4-Fc”, and “B7-FcA” denote CD28-Ig, CTLA4-Ig, and CD80-Igαtp, respectively.

CD28-Ig [4] = biological target: T2, CD28-Ig; assay: Surface plasmon resonance (BIAcore) on immobilized CD28-Ig; type: binding; parameters: native leader and extracellular domain peptide of CD28 and CD80 were grafted onto a human IgG1 heavy chain Fc region; human IgG1 Fc (hinge/CH2/CH3); made in house; host or cells: CHO cells; conditions: for dissociation from CD28-Ig coated surface: BIAcore, 10 ul/min
Procedure: Covalent attachment was achieved by firstly activating the surface with a 1:1 mixture of 0.1 M solution of N-hydroxysuccinamide and 0.1 M 1-ethyl-3-(3-dimethylaminopropyl)carbodiimide. A solution of CD28-Ig 50 ug/ml in 0.01 M sodium acetate pH 4.7 was then passed over the surface. Unreacted N-hydroxysuccinamide esters were then deactivated with 1 M ethanolamine pH 8.5. The surface was equilibrated with running buffer composed of 20 mM HEPES 150 mM NaCl, pH 7.2, 3 mM EDTA and 0.005% Tween 20.
For comparison of CD80-Igαtp and CD86-Igαtp binding with immobilized CD28-Ig, solutions of CD80-Igαtp and CD86-Igαtp (5 ug/ml) were prepared in running buffer described above. Sample solutions were injected (60 ul) at 10 ul/min. Between samples, the surface was regenerated with a 30 ul injection of Gentle elution buffer (Pierce Chemicals, Rockville, Ill.).

| Substance | binding to CD28 positive cells [1] | IL-2 promoter activity [2] | binding to immobilized CD28-Ig (CD28-Ig [3]) | dissociation from CD28-Ig coated surface (CD28-Ig [4]) | saturation of OD405 (CD28-Ig [3]; biotinylated CD80-Igαtp at 50 μg/ml) | off-rate compared with CD80-Igαtp (CD28-Ig [4]; 5 ug/ml) |
| --- | --- | --- | --- | --- | --- | --- |
| CD80-Ig: CD80 leader and extracellular domain grafted onto human IgG1 heavy chain Fc region; monomeric Ig fusion (Ig homodimer) [reference compound] | no binding | no stimulation | little binding and only at much higher concentrations | dissociates very rapidly | – | – |
| CD80-Igαtp: CD80 leader and extracellular domain linked to human IgG1 hinge/CH2/CH3 and terminating in human IgA1 tailpiece (αtp) | specific binding | dose dependent stimulation | concentration dependent binding | about three orders of magnitude slower | about 50% | – |
| CD86-Igαtp: CD86 leader and extracellular domain linked to human IgG1 Fc and terminating in human IgA1 tailpiece (αtp) | specific binding | dose dependent stimulation | good binding | dissociates slowly | – | higher than that for the CD80 construct |
